In patent US20140178935A1 (AVEO PHARMACEUTICALS, published 2014):
Changes are numbered by the printed parent chain.

T1: recombinant mouse-human-mouse (mhm) chimeric HGF protein containing the human V495-L585 HGF sequence disposed … (mouse-human-mouse chimera, UniProt Q08048 56-728)
T1 construct: CHO supernatant was used; also called mhm chimera (V495-L585); MHM chimera (495-585)
T1 chain: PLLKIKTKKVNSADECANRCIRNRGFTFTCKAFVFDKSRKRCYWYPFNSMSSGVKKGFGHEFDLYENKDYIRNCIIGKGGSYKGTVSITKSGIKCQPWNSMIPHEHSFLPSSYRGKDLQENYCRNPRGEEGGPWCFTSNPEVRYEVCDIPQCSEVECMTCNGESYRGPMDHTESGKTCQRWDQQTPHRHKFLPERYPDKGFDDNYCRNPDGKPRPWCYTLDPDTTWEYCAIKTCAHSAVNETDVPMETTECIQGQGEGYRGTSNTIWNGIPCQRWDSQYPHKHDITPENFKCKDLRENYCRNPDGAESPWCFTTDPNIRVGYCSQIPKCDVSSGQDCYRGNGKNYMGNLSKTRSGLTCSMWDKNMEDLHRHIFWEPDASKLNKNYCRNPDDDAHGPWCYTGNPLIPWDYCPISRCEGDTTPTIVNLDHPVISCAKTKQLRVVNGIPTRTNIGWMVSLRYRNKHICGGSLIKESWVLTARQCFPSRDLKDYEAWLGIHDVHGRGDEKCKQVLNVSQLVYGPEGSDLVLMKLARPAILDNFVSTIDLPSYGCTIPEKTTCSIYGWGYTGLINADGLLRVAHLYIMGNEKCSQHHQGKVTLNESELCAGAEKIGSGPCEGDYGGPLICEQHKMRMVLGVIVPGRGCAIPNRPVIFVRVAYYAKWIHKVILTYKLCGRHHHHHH

B1: anti-hHGF monoclonal antibody 3D11 (antibody, mouse IgG1, kappa, V domains shown)
VH: QVQLKESGPGLVAPSQSLSITCTVSGFSLTSYSLHWVRQPPGKGLEWLGVIWAGGNTNYNSSLMSRLTIRKDNSKSQVFLKMNSLQTDDTAMYYCARERFAYWGQGTLVTVSA
VL: QIVLTQSPAIMSAYPGEKVTMTCSASSSVSYMHWYQQKSGTSPKRWIYDTSKLASGVPARFSGSGSGTSYSLTISSMEAEDAATYYCQQWSSNPLTFGAGTKLELKR
notes: Murine IgG1 kappa from hybridoma
B2: anti-hHGF monoclonal antibody 3B6 (antibody, mouse IgG1, kappa, V domains shown)
VH: QVQLQQSGAELVRPGSSVKISCKASGYVFSSYWMNWVKQRPGQGLEWIGQIYPGDGDSNYNGNFKGKATLTADKSSSTAYMQLSSLTSEDSAVYFCASQLGLRENYFDYWGQGTTLTVSS
VL: DIKMTQSPSSMYASLGERVTITCKASQDIKSYLSWFQQKPGKSPKTLIYRVNRLVDGVPSRFSGSGSGQDSSLTITSLENEDMGIYYCLQYDEFPFTFGGGTKLEIKR
notes: as for B1
B3: anti-hHGF monoclonal antibody 2F8 (antibody, mouse IgG1, kappa, V domains shown)
VH: QVQLKQSGAELVRPGTSVKMSCKASGYTFTTYYIHWVNQRPGQGLEWIGKIGPGSGSTYYNEMFKDKATLTVDTSSSTAYMQLSSLTSDDSAVYFCARRGLGRGFDYWGQGTTLTVSS
VL: DIVLTQSPASLAVSLGQRATISCKASQSVDYDGNSYINWYQQKPGQPPKVLIYVASNLESGIPARFSGSGSGTDFTLNIHPVEEEDAATYYCQQSIEDPPTFGAGTKLELKR
notes: as for B1
B4: anti-hHGF monoclonal antibody 1A3 (antibody, mouse IgG1, kappa, V domains shown)
VH: EVQLVESGGGLVQPGGSLKLSCAASEFTFSNYYMSWVRQTPEKRLQWVAYISPGGGSSYYPASVKGRFTISRDNAKNTLYLQMSSLKSEDTAMYYCARQGDGYYGDYAMDYWGQGTSVTVSS
VL: DIQMTQSPASLSVSVGETVTITCRASENIYSNLAWYQQKQGKSPQLLVYAATNLADGVPSRFSGSGSGTQFSLKINSLQSEDFGTYYCQHFWGTPYTFGGGTKLEIKR
notes: as for B1
B5: anti-hHGF monoclonal antibody 3A12 (antibody, mouse IgG1, kappa, V domains shown)
VH: B4 VH with L20I, E26G, Y33F, Q46E, P53S, S58T, A62D, S84N, A97V
VL: B4 VL with S31I, Y49H, N53K, F71Y, T85S
notes: as for B1

biological target: T2, recombinant human HGF (R&D Systems, Catalog No. 294-HGN-025) (human, UniProt P14210 32-728); experiment: cell-based or functional assay
T2 sequence (P14210 32-728 limits assumed): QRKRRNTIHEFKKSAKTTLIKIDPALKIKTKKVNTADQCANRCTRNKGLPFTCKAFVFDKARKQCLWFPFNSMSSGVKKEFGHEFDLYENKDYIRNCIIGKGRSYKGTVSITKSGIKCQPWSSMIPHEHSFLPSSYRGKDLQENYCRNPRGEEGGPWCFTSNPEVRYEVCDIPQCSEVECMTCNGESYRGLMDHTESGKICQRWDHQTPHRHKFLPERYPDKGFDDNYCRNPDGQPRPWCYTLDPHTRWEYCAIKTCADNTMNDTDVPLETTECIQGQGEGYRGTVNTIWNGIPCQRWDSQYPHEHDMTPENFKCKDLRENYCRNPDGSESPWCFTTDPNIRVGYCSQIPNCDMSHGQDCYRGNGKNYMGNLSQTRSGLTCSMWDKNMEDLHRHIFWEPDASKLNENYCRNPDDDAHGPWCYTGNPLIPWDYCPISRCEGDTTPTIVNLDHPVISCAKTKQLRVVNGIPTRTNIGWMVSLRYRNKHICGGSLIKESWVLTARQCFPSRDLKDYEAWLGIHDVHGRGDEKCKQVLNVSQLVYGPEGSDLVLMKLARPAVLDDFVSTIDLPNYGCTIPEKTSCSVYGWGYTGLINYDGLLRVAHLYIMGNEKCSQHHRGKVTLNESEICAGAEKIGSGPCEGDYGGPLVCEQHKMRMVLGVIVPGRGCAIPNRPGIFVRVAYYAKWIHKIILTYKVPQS

Row | IC50, neutralization of HGF stimulated BrdU incorporation in 4 MBr-5 cells | Binder
1 | 51.1 nM | B1
2 | 36.1 nM | B2
3 | 19.2 nM | B3
4 | 4.69 nM | B4
5 | 30.3 nM | B5

biological target: T2, recombinant human HGF (R&D Systems, …); experiment: cell-based or functional assay; remark: another data set of the same source

Row | EC50, inhibition of HGF-stimulated c-Met phosphorylation in PC-3 cells, Average of Two Trials | Binder
6 | 2.28 nM | B1
7 | 1.01 nM | B2
8 | 1.39 nM | B3
9 | 0.684 nM | B4
10 | 2 nM | B5

biological target: T3, recombinant mouse HGF (R&D Systems) (mouse, UniProt Q08048 33-728); experiment: SPR, antibody immobilized, HGF protein injected, 25 C
T3 construct: Bought protein, construct not described; also called rmHGF (R&D Systems); murine HGF
T3 sequence (Q08048 33-728 limits assumed): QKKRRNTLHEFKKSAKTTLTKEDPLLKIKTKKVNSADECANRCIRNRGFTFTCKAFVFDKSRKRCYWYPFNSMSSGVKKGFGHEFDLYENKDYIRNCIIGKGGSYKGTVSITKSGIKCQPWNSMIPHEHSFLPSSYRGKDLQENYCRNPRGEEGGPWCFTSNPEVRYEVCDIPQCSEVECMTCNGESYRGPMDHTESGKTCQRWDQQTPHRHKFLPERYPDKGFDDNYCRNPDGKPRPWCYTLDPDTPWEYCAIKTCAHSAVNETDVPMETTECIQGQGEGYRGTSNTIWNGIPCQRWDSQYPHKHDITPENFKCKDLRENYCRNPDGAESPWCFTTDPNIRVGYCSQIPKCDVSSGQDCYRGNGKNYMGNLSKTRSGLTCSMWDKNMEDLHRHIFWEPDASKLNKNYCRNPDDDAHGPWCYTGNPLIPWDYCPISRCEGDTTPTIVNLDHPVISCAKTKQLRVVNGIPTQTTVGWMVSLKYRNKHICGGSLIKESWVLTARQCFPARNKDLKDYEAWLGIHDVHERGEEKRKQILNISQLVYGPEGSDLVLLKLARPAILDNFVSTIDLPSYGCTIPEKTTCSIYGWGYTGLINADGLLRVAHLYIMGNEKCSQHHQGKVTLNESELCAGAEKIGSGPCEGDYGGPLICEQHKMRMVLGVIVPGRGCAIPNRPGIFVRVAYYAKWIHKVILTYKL
Procedure: (§1) Each antibody was immobilized on a carboxymethylated dextran CM5 sensor chip (BIAcore, Catalog No. BR-1006-68) by amine coupling (BIAcore, Catalog No. BR-1000-50) using a standard coupling protocol according to manufacturer's instructions.
(§2) Analyses were performed at 25° C. using PBS (GIBCO, Catalog No. 14040-133) containing 0.05% surfactant P20 (BIAcore, Catalog No. R-1000-54), 2 mg/mL BSA (EMD, Catalog No. 2930) and 10 mg/mL CM-Dextran Sodium salt (Fluka, Catalog No. 86524) as running buffer. […] The resulting binding was determined as resonance units (RU) over baseline 30 seconds after the end of injection. […] Non-specific binding was monitored by comparing binding to a control surface where mouse IgG (Rockland, Catalog No. 010-0102) was immobilized using the same amine coupling procedure.

Row | binding result | Binder
11 | no binding | B1
12 | no binding | B2
13 | binds | B3
14 | no binding | B4
15 | no binding | B5

Biological target: T1, recombinant mouse-human-mouse (mhm) …
Experiment: as above
Procedure: as §1, §2

Row | binding result | Binder
16 | no binding | B1
17 | no binding | B2
18 | no binding | B3
19 | no binding | B4
20 | no binding | B5

biological target: hHGF-Fc G555E (recombinant hHGF protein containing a glycine to glutamate substitution at position 555) (human); experiment: as above
Sequence (chain, as listed by the source G555E G555E limits assumed): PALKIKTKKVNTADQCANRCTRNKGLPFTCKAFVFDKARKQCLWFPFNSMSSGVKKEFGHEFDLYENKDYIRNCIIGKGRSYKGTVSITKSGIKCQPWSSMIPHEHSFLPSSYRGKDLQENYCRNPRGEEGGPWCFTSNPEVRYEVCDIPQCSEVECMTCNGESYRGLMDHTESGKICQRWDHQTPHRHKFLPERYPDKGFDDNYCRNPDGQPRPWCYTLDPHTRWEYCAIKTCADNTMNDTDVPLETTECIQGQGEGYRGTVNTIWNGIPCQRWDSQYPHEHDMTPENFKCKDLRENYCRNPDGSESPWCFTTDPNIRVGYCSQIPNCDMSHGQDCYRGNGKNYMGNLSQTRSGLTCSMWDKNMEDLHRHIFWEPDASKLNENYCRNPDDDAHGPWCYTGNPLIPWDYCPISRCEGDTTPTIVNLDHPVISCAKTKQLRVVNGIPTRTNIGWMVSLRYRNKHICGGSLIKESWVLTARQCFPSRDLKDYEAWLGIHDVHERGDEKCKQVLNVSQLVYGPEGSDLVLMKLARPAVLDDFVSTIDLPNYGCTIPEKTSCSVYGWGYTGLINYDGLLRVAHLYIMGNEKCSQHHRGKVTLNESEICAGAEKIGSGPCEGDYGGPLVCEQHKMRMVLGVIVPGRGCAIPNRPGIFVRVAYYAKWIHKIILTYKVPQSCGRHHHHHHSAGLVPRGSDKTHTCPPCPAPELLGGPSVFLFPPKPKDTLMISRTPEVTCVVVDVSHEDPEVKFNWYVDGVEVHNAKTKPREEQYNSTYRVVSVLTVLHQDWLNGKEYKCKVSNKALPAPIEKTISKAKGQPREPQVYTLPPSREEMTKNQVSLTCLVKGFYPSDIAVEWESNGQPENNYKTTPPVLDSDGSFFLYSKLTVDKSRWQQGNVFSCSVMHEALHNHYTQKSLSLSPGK
Procedure: as §1, §2

Row | binding result | Binder
21 | binds | B1
22 | binds | B2
23 | binds | B3
24 | binds | B4
25 | binds | B5

biological target: hHGF-Fc C561R (recombinant hHGF protein containing a cysteine to arginine substitution at position 561) (human); experiment: as above
Sequence (chain, as listed by the source C561R C561R limits assumed): as the sequence (chain, as listed by the source G555E G555E limits assumed) above, with E501G, C507R counted along it
Procedure: as §1, §2

Row | binding result | Binder
26 | binds | B1
27 | binds | B2
28 | binds | B3
29 | binds | B4
30 | binds | B5

biological target: T2, recombinant human HGF (R&D Systems, …); experiment: SPR, antibody captured by anti-mouse Ig, HGF injected, 25 C
Procedure: Rabbit anti-mouse immunoglobulins (BIAcore, Catalog No. BR-1005-14) were immobilized on carboxymethylated dextran CM5 sensor chips (BIAcore, Catalog No. BR-1006-68) by amine coupling (BIAcore, Catalog No. BR-1000-50) using a standard coupling protocol according to manufacturer's instructions. The analyses were performed at 25° C. using PBS (GIBCO, Catalog No. 14040-133) containing 0.05% surfactant P20 (BIAcore, Catalog No. BR-1000-54), 2 mg/mL BSA (EMD, Catalog No. 2930), and 10 mg/mL CM-Dextran Sodium salt (Fluka, Catalog No. 86524) as running buffer.
The antibodies were captured in an individual flow cell at a flow rate of 10 μL/min. Injection time was variable for each antibody to yield approximately 20 RU of antibody captured for each cycle. […] The dissociation phase was monitored for 15 or 90 minutes, depending on concentration. The surface then was regenerated with 10 mM Glycine-HCl, pH 1.7 (BIAcore, Catalog No. BR-1003-54) injected for 3 minutes at a flow rate of 60 μL/min before another cycle was initiated.
Kinetic parameters were determined using the kinetic function of the BIAevalutation software with reference subtraction.

Row | Kd | koff | kon | Binder
31 | 0.017 nM | 3.9e-05 s⁻¹ | 2e+06 M⁻¹ s⁻¹ | B2
32 | 0.0301 nM | 5.2e-05 s⁻¹ | 1.7e+06 M⁻¹ s⁻¹ | B4
33 | 0.103 nM | 0.00016 s⁻¹ | 1.6e+06 M⁻¹ s⁻¹ | B5

biological target: T2, recombinant human HGF (R&D Systems, …); experiment: competition ELISA (DELFIA): antibody inhibits c-Met binding to plate-coated HGF
Procedure: The plates then were blocked with 200 μL of 5% non-fat dry milk in PBS for 1 hour at room temperature. […] 100 μL of sample per well was transferred to the assay plate and incubated overnight at 4° C.
The resulting plates then were washed three times with PBS-0.1% Tween 20, and incubated for 1 hour at room temperature with Eu-labeled Streptavidin (Wallac, Catalog No. 1244-360) diluted 1:1000 in DELFIA assay buffer (Wallac, Catalog No. 4002-0010). The resulting plates were washed 3 times with DELFIA wash solution (Wallac, Catalog No. 4010-0010) and incubated with 100 μL/well DELFIA enhancement solution (Wallac #4001-0010) for 15 minutes at room temperature with agitation.
The plates were read on Victor³V instrument (Perkin Elmer) using the Europium method.

Row | IC50 | Binder
34 | 5.66 nM | B1
35 | 5.36 nM | B3
36 | 5.65 nM | B4
37 | 5.26 nM | B5
